US5847076A, “Regulators of the proteasome” (Board of Regents, The University of Texas System, priority 1993, dated 1998)
Ends that are not written are not given here.

B1: PI31: inhibitor protein of the proteasome purified from bovine red blood cells, Mr=31,000 subunit (protein, UniProt Q3SX30 2-270, looked up)
Proteasome inhibitor PI31 …: AGLEVLFASAAPAITCAQDALVCFLHWEVVTHGYYGLGAGDQPGPNDKKSELLPVEWNSNKDLYVLRYESKDGSRKLLVKAVTVENSMIINVLEHGSQQVSDLTLNLNDYIDSEHLVDFHRVYKNSEELRSRIVSGIITPIHEQWEKANLSPHREFPPATAREVDPLRIHPQHPHTSRQPTWCDPLGPFAVGGEDLDPFGCRRGGMIVDPLRSGFPRALIDPSSGLPNRLPPGAVPPGARFDPFGPIGTSPSGPNPDHLPPPGYDDMYL

Legend:
[1] = target: T1, proteasome activation by PA28; assay: Inhibition of PA28-activated proteasome by carboxy-terminal peptide; assay type: biochemical; details: 0.5 μg proteasome, 1 μg PA28 (FIG. 26)
T1 construct: from tissue
Experimental: Proteasome activity in the absence of PA28 was 1.2 units/assays. Assays contained 0.5 μg of proteasome and 1 μg of PA28.
(§1) Therefore, this peptide or a compound with similar properties may be used to block the action of the proteasome in intact cells. Such a compound or analogs having similar binding activity may be used to control accelerated rates of intracellular protein degradation. The peptide has the sequence: Acetyl-KNFEKLKKPRGETKGMIY (SEQ ID NO. 3). The N-terminal lysine may be acetylated if needed for stability. […] Therefore, the C-terminal Ile-Tyr amino acids or their functional equivalents appear to be important for binding of the 18-mer to the proteasome and for inhibition of the activation of the proteasome by activating factors PA28 and PA700. An equivalent of the 18-mer may comprise less than 18 amino acids or may comprise functionally equivalent amino acid replacements which allow similar binding activity.

[2] = target: T2, proteasome activation by PA700; assay: Inhibition of proteasome activation by PA700 by C18 peptide; assay type: biochemical; details: for inhibition of proteasome activation by PA700: FIG. 27; for effect of peptide alone on proteasome activity: no activator
T2 construct: from tissue
Experimental: Activation of the proteasome by PA700 was performed in the presence of the indicated concentrations of purified C18 peptide.
as §1

proteasome = target: T3, proteasome; assay: Binding of PA28 carboxy-terminal peptides to the proteasome
T3 construct: from tissue
From the text: as §1

[3] = test system: proteasome (latent and active forms); details: cited from earlier work
[4] = listed as 18 amino acid peptide

Row | Molecule | inhibition of proteasome activation by PA28 [1] | inhibition of proteasome activation by PA28 [1, 4] | inhibition of proteasome activation by PA700 [2] | inhibition of proteasome activation by PA700 [2, 4] | effect of peptide alone on proteasome activity [2] | effect of peptide alone on proteasome activity [2, 4] | binding to the proteasome (proteasome) | inhibition of peptidase and protease activities of the proteasome [3]
1 | Acetyl-KNFEKLKKPRGETKGMIY (Ac-KNFEKLKKPRGETKGMIY) [C18, 18 amino acid peptide corresponding to the carboxyterminal 18 amino acids of PA28] | inhibition of PA28-activated proteasome | competitively inhibits binding and activation of PA28 | competitively inhibits proteasome activation by PA700 | competitively inhibits the binding and activation of proteasome activator, PA700 | had no effect on baseline proteasome activity | does not activate the proteasome | does bind to it | 
2 | B1 |  |  |  |  |  |  |  | inhibited all of the peptidase and protease activities of both the latent and active forms of the proteasome by a non-competitive mechanism
